System: PGs of B. mori
Assay: Ecdysone biosynthesis in cultured PGs (LC-MS/MS)
Format: cell-based, Bombyx mori
Experimental: Two strains of the silkworm B. mori were used for this study. The p50T strain was used for NGS analysis and tissue distribution analysis, and the Kinshu x Showa strain was used for other experiments. The p50T strain was reared on mulberry leaves at room temperature. The Kinshu x Showa strain was reared on an artificial diet (SilkMate PS: Nihon Nosan Kogyo) at 25°C under a 16L:8D photoperiod. The first feeding day was designated as day 0.
Dissected PGs were rinsed with Grace's insect culture medium (Gibco) and pre-cultured individually in 100 µl medium in 96-well plates (BD Falcon) at 25°C for 30 min. To evaluate the effect of extracellular Ca^2+ on ecdysone biosynthesis, lepidopteran saline and lepidopteran saline using NaCl as a replacement for CaCl2 were used. For the pharmacological analysis, the PG was pre-treated with the inhibitor for 15 min during the pre-culture period. Following this treatment, the PG was cultured in the desired conditions for the desired period (Ecdysone assay: 3 hours; cAMP assay: 30 min; and Protein phosphorylation assay: 15 min). Actinomycin D, H-89 and cycloheximide (CHX) were purchased from Sigma; Rapamycin was purchased from Santa Cruz Biotechnology; and LY294002 was purchased from Merck. H-89 was dissolved in water. The other inhibitors were dissolved in DMSO. […]
Prior to ecdysteroids extraction, the 100 µl of cultured medium was diluted with equal volume of MilliQ water. […] Quantification of ecdysteroids using LC-MS/MS was performed as previously described with some modifications. […] The separated ecdysteroids were quantified with the QTRAP5500 MS/MS system (AB SCIEX) using MRM mode. For the quantitative analysis, standard curves were generated with concentrations of 0.98–1000 ng/ml.
The effect of PDF and DH31 on ecdysone biosynthesis was evaluated in the PGs of B. mori. The PGs of V7 larvae were cultured with PDF or DH31, and the amount of ecdysone synthesized was measured using LC-MS/MS [21]. […]
Figure 3 Prothoracicotropic activities of PDF in vitro. […] Statistically significant differences were evaluated by Student's t-test (***P<0.001, **P<0.01, *P<0.05).

B1: PTTH: prothoracicotropic hormone, humoral pathway-mediated tropic hormone (protein, UniProt P17219 116-224, looked up)
Prothoracicotropic hormone: GNIQVENQAIPDPPCTCKYKKEIEDLGENSVPRFIETRNCNKTQQPTCRPPYICKESLYSITILKRRETKSQESLEIPNELKYRWVAESHPVSVACLCTRDYQLRYNNN
modifications: Prothoracicotropic hormone
ecdysone biosynthesis without extracellular Ca2+ (Ca2+-free lepidopteran saline (CaCl2 replaced by NaCl), n = 6): did not induce ecdysone biosynthesis
EC50 (dose-response, cultured PGs of V7 larvae, 3 hours, LC-MS/MS, PTTH n = 10–38, read-out: EC50 (ecdysone biosynthesis, prothoracicotropic activity)): 0.108 nM
concentration of highest prothoracicotropic activity (dose-response, cultured PGs of V7 larvae, LC-MS/MS): 10^−9 M
